Usually IC50 stands for the point on the concentration scale where inhibition reaches its midpoint. For orientation: EC50 means the concentration needed to bring the measured effect to its halfway point. Read a high EC50 as a less potent agent. Broadly, the Kd is a measure of binding affinity in units of concentration. The term koff denotes a measure of how fast the partners let go of each other. Higher therefore signals fast dissociation. The kon is the rate constant with which the complex forms. The low end stands for slow association, the high end for fast association.

The values below come from patent US20210040232A1 (Regeneron, published 2021).

Test [1] addresses T1, recombinant hCTLA-4-mFc (human CTLA-4 extracellular domain with a C-terminal Fc portion of mouse IgG2a) (human).
T1 construct: also called dimeric CTLA-4 protein
Briefly: competition ELISA, 400 pM hCTLA-4-mFc on plate-coated hB7-2-hIgG1-6His. (An ELISA detects its analyte on a solid surface through an enzyme-linked reagent.)

For test [2], the target named is T2, human CTLA-4 (amino acids M1-N223) on stably transfected VI-fibroblast cells (human, UniProt P16410 36-223).
T2 construct: also called VI-fibroblast/hCTLA-4
T2 sequence (P16410 36-223 limits assumed): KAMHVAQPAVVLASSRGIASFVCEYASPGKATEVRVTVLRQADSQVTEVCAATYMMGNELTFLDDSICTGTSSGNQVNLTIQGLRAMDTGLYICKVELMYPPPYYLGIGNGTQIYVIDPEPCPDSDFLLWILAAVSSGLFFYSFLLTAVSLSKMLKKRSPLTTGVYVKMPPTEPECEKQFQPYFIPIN
Put plainly: ECL cell binding, VI-fibroblast/hCTLA-4 cells.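 Note: antibodies bound to the cells on carbon electrode plates, detected via SULFO-TAG anti-IgG secondary (1 h, RT), electrochemiluminescence read as RLU over a concentration range.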

Test [3] deals with T1, recombinant hCTLA-4-mFc (human CTLA-4 …). Put plainly: competition ELISA, 200 pM hCTLA-4-mFc on plate-coated hB7-1-hIgG1-6His.
The target of test [4] is T3, hCTLA-4 extracellular domain (aa 1-161) fused to the trans-membrane and cytoplasmic domain of hCD300a (aa … (human, UniProt Q9UGN4 181-299)).
T3 construct: range 181-299; the range as stated begins at residue 1 and so holds the signal peptide; also called Jurkat/NFAT-Luc/hCTLA-4-hCD300a; hCTLA-4/hCD300 chimera
T3 sequence (Q9UGN4 other isoform, or with tags, fused parts or gaps limits assumed, form in doubt): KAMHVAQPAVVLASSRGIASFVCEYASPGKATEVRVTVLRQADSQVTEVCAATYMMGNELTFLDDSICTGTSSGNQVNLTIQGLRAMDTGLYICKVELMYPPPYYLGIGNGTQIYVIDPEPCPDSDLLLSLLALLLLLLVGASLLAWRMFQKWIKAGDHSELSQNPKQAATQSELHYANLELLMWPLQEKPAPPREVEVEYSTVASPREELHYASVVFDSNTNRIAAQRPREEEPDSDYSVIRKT
Put plainly: ECL cell binding, Jurkat/NFAT-Luc/hCTLA-4-hCD300a cells.

Test [5] has as its target T3, hCTLA-4 extracellular domain (aa 1-161) …. Briefly: cell-based or functional assay.
Test [6] concerns the target T4, soluble human CTLA-4 expressed with a C-terminal myc-myc-polyhistidine tag (human).
T4 construct: soluble protein; also called hCTLA-4.mmh; hCTLA4.mmh
Briefly: SPR, mAb capture, 25 C. For orientation: SPR reads the build-up and loss of mass on a sensor chip optically.

The target of test [7] is T5, soluble Macaca fascicularis CTLA-4 expressed with a C-terminal myc-myc-polyhistidine tag (Macaca fascicularis).
T5 construct: soluble protein; also called mf CTLA-4.mmh; mfCTLA4.mmh
T5 chain: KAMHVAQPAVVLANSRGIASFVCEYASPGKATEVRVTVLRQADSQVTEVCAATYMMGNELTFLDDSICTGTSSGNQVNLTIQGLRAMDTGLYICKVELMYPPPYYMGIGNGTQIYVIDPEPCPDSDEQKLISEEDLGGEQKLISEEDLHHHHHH
Put plainly: SPR, mAb capture, 25 C.

Test [8] deals with T3, hCTLA-4 extracellular domain (aa 1-161) …. Briefly: cell-based or functional assay. This is another data set of the same source.
Test [9] has as its target T1, recombinant hCTLA-4-mFc (human CTLA-4 …). Put plainly: competition ELISA, 400 pM hCTLA-4-mFc on plate-coated hB7-2-hIgG1-6His; * value below theoretical bottom of assay.
Test [10] concerns the target mf CTLA-4 extracellular domain (aa 1-161) fused to the trans-membrane and cytoplasmic domain of hCD300a (aa … (Macaca fascicularis; human, UniProt G7PL88 1-161; Q9UGN4 181-299). Briefly: cell-based or functional assay.

T1 sequence (chain, as listed by the source limits assumed): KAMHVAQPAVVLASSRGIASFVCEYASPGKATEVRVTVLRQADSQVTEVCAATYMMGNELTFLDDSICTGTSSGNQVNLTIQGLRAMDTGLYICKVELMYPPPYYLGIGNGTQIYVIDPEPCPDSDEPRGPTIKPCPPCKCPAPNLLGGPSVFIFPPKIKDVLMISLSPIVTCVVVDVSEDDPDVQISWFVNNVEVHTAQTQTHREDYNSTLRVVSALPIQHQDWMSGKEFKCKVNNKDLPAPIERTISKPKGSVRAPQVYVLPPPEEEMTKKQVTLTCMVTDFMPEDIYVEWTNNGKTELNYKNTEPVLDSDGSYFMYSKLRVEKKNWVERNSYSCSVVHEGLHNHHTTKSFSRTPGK

B1: H1H19319P2 (antibody, human IgG1, V domains shown)
VH: QVQLVESGGGEVQPGRSLRLSCAASGFTFSSYGMHWVRQAPGKGLEWVAVIWYDGRNKHYVDSVKGRFTISRDNSKNTVYLQMNSLRAEDSAVYYCVRGGQLGAFDYWGQGTLVTVSS
VL: not shown
Turning to B1, the “% Blockade” value in test [1] stood at 97%; in test [3], 85%. The IC50 stood at 43 nM in test [1] and 320 nM in test [3]. For the same molecule, the EC50 in test [2] came to 0.24 nM; in test [4], 0.28 nM. Besides, the “EC50, T-cell/APC NFAT-luciferase assay, +Fc Block” value in test [5] is 4.18 nM. Further, the “EC50, T-cell/APC NFAT-luciferase assay, -Fc Block” value in test [5] amounted to 2.47 nM. In addition, the Kd turned out to be 10.2 nM in test [6] and 12.9 nM in test [7]. Besides, the t1/2 in test [6] stood at 7.9 min; in test [7], 4.4 min.

B2: H1H19313P (antibody, human IgG1, V domains shown)
VH: QITLKESGPTLVKPTQTLTLTCTFSGFSLSTSGVGVGWIRQPPGVALEWLALIYWNDDKRFSPSLKSRLTITKDTSKNQVVLTMTNMDPVDTATYYCAHRRLGLYYFDYWGQGTLVTVSS
VL: DIQLTQSPSFLSASVGDRVTITCWASQGISSYLAWYQQKPGKAPKLLIYAASTLQSGVPSRFSGSGSGTEFTLTISSLQPEDFATYYCQQVHIYPFTFGPGTKVDIK
With B2, in test [8], the “EC50, T-cell/APC IL-2 release assay, APC HEK293/hCD20/hCD80” value (from here on “EC50, T-cell/APC IL-2 release assay”) turned out to be 21.9 nM and the “Fold induction of IL-2 at 100 nM, APC HEK293/hCD20/hCD80” value (“Fold induction … APC HEK293/hCD20/hCD80” below) came out at 5.7 fold. Besides, in [1], the “% Blockade” value was 99% and the IC50 worked out at 0.77 nM. Moreover, in test [2], the EC50 was 0.16 nM and the “ratio of RLU signal to parental VI-fibroblast at 0.4 nM Ab” value (“ratio of RLU signal” for short) was found to be 11 ratio. Further, in test [3], the “% Blockade” value stood at 98% and the IC50 came out at 0.4 nM. In addition, in test [4], the EC50 was found to be 0.11 nM. For the same molecule, in test [5], the “EC50, T-cell/APC NFAT-luciferase assay, +Fc Block” value stood at 3.47 nM and the “EC50, T-cell/APC NFAT-luciferase assay, -Fc Block” value is 1.69 nM. In test [6], binding was put at a Kd of 1.55 nM, the koff was determined as 0.000758 s⁻¹, the kon stood at 489000 M⁻¹ s⁻¹ and the t1/2 worked out at 15.2 min. Also, in test [7], the affinity, expressed as Kd, was 0.976 nM; the off-rate (koff) came to 0.000464 s⁻¹; the kon is 475000 M⁻¹ s⁻¹; the t1/2 was found to be 24.9 min.

B3: H1H19303P (antibody, human IgG1, kappa, V domains shown)
VH: EVQLVESGGGLVQPGGSLRLSCAASGFTFSNYEMSWVRQAPGKGLEWVSSIRTSGTTKYYADSMKGRFTISRDNAKNSLYLQMNSLRAEDTAVYYCAGGGTFLHYWGQGTLVTVSS
VL: DIQMTQSPSSVSASVGDRVTITCRASQGIASYLAWYQQKPGKAPKLLIYAASSLQTGVPSRFSGSGYGTDFTLTISSLQPEDFATYYCQQAKSFPMYTFGQGTKLEIKR
notes: also called REGN4659
Regarding B3, in [8], the “EC50, T-cell/APC IL-2 release assay” value came out at 40.9 nM and the “Fold induction … APC HEK293/hCD20/hCD80” value came out at 5.4 fold. For the same molecule, in test [1], the “% Blockade” value came to 97% and the IC50 came out at 39 nM. Also, in test [2], the midpoint of the response, the EC50, lay at 0.21 nM and the “ratio of RLU signal” value is 20 ratio. Further, in test [3], the “% Blockade” value was found to be 90% and the IC50 was 180 nM. Further, in [4], the EC50 was found to be 0.29 nM. Also, in [5], the “EC50, T-cell/APC NFAT-luciferase assay, +Fc Block” value came to 1.73 nM and the “EC50, T-cell/APC NFAT-luciferase assay, -Fc Block” value worked out at 1.61 nM. In test [6], the Kd came to 16.4 nM, the koff was 0.00199 s⁻¹, the kon is 121000 M⁻¹ s⁻¹ and the t1/2 stood at 5.8 min. In addition, in test [7], the Kd stood at 15.7 nM, the koff turned out to be 0.00245 s⁻¹, the kon was determined as 156000 M⁻¹ s⁻¹ and the t1/2 worked out at 4.7 min.

B4: H1H19273P (antibody, human IgG1, V domains shown)
VH: QITLKESGPTLVKPTQTLTLTCTFSGFSLSTSGVGVGWIRQSPGRALEWLALIYWNDHERYSPSLKSRLTITKDTSKNLVVLAMANMDPVDTATYFCAHRNIEYRRSYFFDYWGQGTLVTVSS
VL: DIQMTQSPSSVSASVRDRVTVTCRASQDINNWLAWYQQKPGKAPKLLIYAASSLQSGVPSRFSGSGSGTDFTLTISSLQPEDFATYYCQQANTFPFTFGPGTKVDIK
Consider B4, for which, in [8], the “EC50, T-cell/APC IL-2 release assay” value amounted to 33.3 nM and the “Fold induction … APC HEK293/hCD20/hCD80” value stood at 5.1 fold. In test [1], the “% Blockade” value worked out at 98% and the IC50 was 0.54 nM. The “ratio of RLU signal” value in test [2] turned out to be 11 ratio. Moreover, in [3], the “% Blockade” value was determined as 98% and the IC50 amounted to 0.25 nM. This molecule also displayed an EC50 in test [4] of 0.52 nM. In test [5], the “EC50, T-cell/APC NFAT-luciferase assay, +Fc Block” value came to 3.83 nM and the “EC50, T-cell/APC NFAT-luciferase assay, -Fc Block” value stood at 2.74 nM. In [6], this molecule registered a Kd of 0.966 nM, a koff of 0.000362 s⁻¹, a kon of 374000 M⁻¹ s⁻¹ and a t1/2 of 31.9 min. In addition, in [7], the affinity, expressed as Kd, was 0.956 nM; the koff is 0.000346 s⁻¹; the kon was 362000 M⁻¹ s⁻¹; the t1/2 came out at 33.4 min.

B5: H1H19269P (antibody, human IgG1, V domains shown)
VH: EVQLVESGGGLVQPGGSLKLSCAASGFTFSGSAMHWVRQASGKGLEWVGRIRGKANSFATAYSASVKGRFTISRDDSKNTASLQMNSLRTEDTAVYFCTREDQQLVRPYYYHYGMDVWGQGTTVTVSS
VL: DIQMTQSPSSLSASVGDRVTITCRTSQSITNYLNWYQQKPGKAPKLLIYATASLQSGVPSRFSGSGSETDFTLTISSLQPEDFATYYCQQSYSTPLTFGGGTKVEIK
As for B5, the “% Blockade” value in test [1] amounted to 100%. Besides, in [2], a half-maximal response (EC50) required 0.4 nM and the “ratio of RLU signal” value was 15 ratio. In addition, the IC50 in test [9] is 0.19 nM. In test [3], the “% Blockade” value was 98% and the IC50 stood at 0.1 nM. In test [6], this molecule returned a Kd of 1.2 nM, an off-rate (koff) of 0.000474 s⁻¹, a kon of 394000 M⁻¹ s⁻¹ and a t1/2 of 24.4 min. In test [7], this molecule displayed a Kd of 1.22 nM, a koff of 0.000435 s⁻¹, a kon of 356000 M⁻¹ s⁻¹ and a t1/2 of 26.6 min.

B6: H1H19327P2 (antibody, human IgG1, V domains shown)
VH: QVQLVESGGGVVQPGRSLRLSCAASGFTSSSYGIHWVRQAPGKGLEWVAVIWYDGSNKYYADSVKGRFTISRDNSKNTLYLQMNSLRAEDTAVYYCARGGPWGAFDIWGQGTMVTVSS
VL: not shown
Consider B6, for which, in test [1], the “% Blockade” value came out at 38%. For the same molecule, in [2], the EC50 was 0.29 nM and the “ratio of RLU signal” value came out at 16 ratio. The “% Blockade” value in test [3] is 7%. Also, in test [5], the “EC50, T-cell/APC NFAT-luciferase assay, +Fc Block” value turned out to be 5.49 nM and the “EC50, T-cell/APC NFAT-luciferase assay, -Fc Block” value was found to be 4.2 nM. Further, the “EC50, T-cell/APC NFAT-luciferase assay, +Fc Block” value in test [10] was 5.76 nM. For the same molecule, in test [6], the Kd was found to be 66.3 nM, the koff came to 0.000585 s⁻¹, the on-rate constant (kon) amounted to 8810 M⁻¹ s⁻¹ and the t1/2 stood at 19.8 min. In test [7], this molecule gave a Kd of 62.4 nM, a koff of 0.0117 s⁻¹, an on-rate constant (kon) of 188000 M⁻¹ s⁻¹ and a t1/2 of 1 min.

B7: H1H19291P (antibody, human IgG1, V domains shown)
VH: QVQLVESGGGVVQPGRSLRLSCAASGFTFSTYGMHWVRQAPGKGLEWVTVIWYDGNNKYYADSVKGRFTISRDNSKNTLYLQMNNLRAEDTALYYCARGGGRLSYYHDYWGQGTLVTVSS
VL: DIQMTQSPSSLSASVGDRVTITCRASQSISTFLNWYQQKPGKAPNLLIYGTSSLQSGVPSRFSGSGSGTDFTLTISSLQPEDFAAYYCQQTYSTPFTFGPGTKVDIK
As for B7, in test [1], the “% Blockade” value was determined as 99% and the IC50 is 2.5 nM. Further, the “ratio of RLU signal” value in [2] amounted to 5 ratio. For the same molecule, in test [3], the “% Blockade” value is 98% and the IC50 is 2 nM. Also, in test [5], the “EC50, T-cell/APC NFAT-luciferase assay, +Fc Block” value turned out to be 3.92 nM and the “EC50, T-cell/APC NFAT-luciferase assay, -Fc Block” value came out at 2.36 nM. Further, the “EC50, T-cell/APC NFAT-luciferase assay, +Fc Block” value in test [10] worked out at 7.67 nM. For the same molecule, in test [6], binding was characterised by a dissociation constant (Kd) of 13.8 nM, the koff is 0.00123 s⁻¹, the kon was 88800 M⁻¹ s⁻¹ and the t1/2 stood at 9.4 min. In test [7], this molecule displayed a Kd of 13 nM, a koff of 0.00121 s⁻¹, a kon of 93100 M⁻¹ s⁻¹ and a t1/2 of 9.6 min.
